Laboratory results reported in patent US20190359687A1 (Bayer, published 2019).
Values belong to the binder of their own block, whether it stands above or below them. No end group written: not given here. *: point of attachment. Biotin = O=C1N[C@H]2[C@H](CS[C@H]2CCCCC(=O)*)N1

Legend:
[1] = target: T1, human glycophorin A in the red blood cell membrane (human, UniProt P02724 20-150); assay: FACS, scFv-Fc
T1 construct: whole, on cells; used for intact RBC, isolated RBC membranes and transfected cells; the assay field tells which; also called GPA; hGPA
T1 sequence (looked up): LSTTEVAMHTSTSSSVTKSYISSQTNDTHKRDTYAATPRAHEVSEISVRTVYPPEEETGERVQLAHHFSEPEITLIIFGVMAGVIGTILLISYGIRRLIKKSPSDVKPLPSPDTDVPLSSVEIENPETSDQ

[2] = target: T2, Cynomolgus monkey glycophorin A on Cynomolgus monkey red blood cells (Cynomolgus monkey); assay: FACS, Cyno #1 RBC
T2 construct: whole, on cells; also called Cyno RBC; Cyno GPA

[3] = target: T1, human glycophorin A in the red blood …; assay: FACS, Human RBC
[4] = target: T3, Rhesus monkey glycophorin A on Rhesus monkey red blood cells (Rhesus monkey, UniProt A0A1D5Q349 20-150); assay: FACS, Rhesus RBC
T3 construct: whole, on cells; also called Rhesus RBC; monkey GPA
T3 sequence: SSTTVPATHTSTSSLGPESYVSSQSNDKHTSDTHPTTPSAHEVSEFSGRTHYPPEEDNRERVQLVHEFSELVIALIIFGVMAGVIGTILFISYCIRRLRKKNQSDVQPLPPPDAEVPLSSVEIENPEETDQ

[5] = target: T4, dog red blood cells (dog); assay: FACS, Dog RBC
T4 construct: also called dog RBC

[6] = target: T2, Cynomolgus monkey glycophorin A on …; assay: FACS, Cyno #2 RBC
[7] = target: T2, Cynomolgus monkey glycophorin A on …; assay: FACS, Cyno #3 RBC
[8] = target: T5, GP5-11 alanine scanning peptide (human, N-terminal biotin); assay: alanine scanning peptide ELISA
T5 construct: GP5 with alanine at position 11
T5 peptide: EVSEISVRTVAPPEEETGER

[9] = target: T6, GP5-16 alanine scanning peptide (human, N-terminal biotin); assay: alanine scanning peptide ELISA
T6 construct: GP5 with alanine at position 16
T6 peptide: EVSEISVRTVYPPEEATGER

[10] = target: T7, GP5-14 alanine scanning peptide (human, N-terminal biotin); assay: alanine scanning peptide ELISA
T7 construct: GP5 with alanine at position 14
T7 peptide: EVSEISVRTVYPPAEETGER

[11] = target: T8, GP5-13 alanine scanning peptide (human, N-terminal biotin); assay: alanine scanning peptide ELISA
T8 construct: GP5 with alanine at position 13
T8 peptide: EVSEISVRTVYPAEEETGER

[12] = target: T1, human glycophorin A in the red blood …; assay: SPR, human RBC membranes, Fab
Experimental: Kinetic analysis of the antibody binding to human red blood cell membranes was also performed using surface plasmon resonance (SPR) using a Biacore instrument. In this assay membranes prepared from human red blood cells were attached to a L1 sensor matrix and antibodies were flowed over the RBC membranes.

[13] = target: T9, GP11 peptide (human); assay: peptide ELISA, Fab
T9 peptide: Biotin-VYPPEEET
Text: (§1) These peptides were attached to the surface of a streptavidin coated plate via a biotin moiety that was present at the N-terminus of each peptide.

[14] = target: T10, GP12 peptide (human); assay: peptide ELISA, Fab
T10 peptide: Biotin-YPPEEETG
Text: as §1

[15] = target: T11, GP10 peptide (human); assay: peptide ELISA, Fab
T11 peptide: Biotin-TVYPPEEE
Text: as §1

[16] = target: T12, GP13 peptide (human); assay: peptide ELISA, Fab
T12 peptide: Biotin-PPEEETGE
Text: as §1

[17] = target: T13, GP9 peptide (human); assay: peptide ELISA, Fab
T13 peptide: Biotin-RTVYPPEE
Text: as §1

[18] = target: T14, GP8 peptide (human); assay: peptide ELISA, Fab
T14 peptide: Biotin-VRTVYPPE
Text: as §1

[19] = target: T15, GP7 peptide (human); assay: peptide ELISA, Fab
T15 peptide: Biotin-SVRTVYPP
Text: as §1

[20] = target: T16, GP16 peptide (human); assay: peptide ELISA, Fab
T16 peptide: Biotin-EETGERVQ
Text: as §1

[21] = target: T17, GP14 peptide (human); assay: peptide ELISA, Fab
T17 peptide: Biotin-PEEETGER
Text: as §1

[22] = target: T18, GP15 peptide (human); assay: peptide ELISA, Fab
T18 peptide: Biotin-EEETGERV
Text: as §1

[23] = target: T2, Cynomolgus monkey glycophorin A on …; assay: FACS, RBC Cy01
Experimental: (§2) The binding of the humanized variants to intact red blood cells (RBC) from humans (Hu01 to 03; 3 individuals), Rhesus monkey (Rh01 to 03; 3 individuals) and Cynomolgus monkey (Cy01 to 02; 2 individuals) was measured by fluorescence activated cell sorting (FACS).

[24] = target: T19, purified human glycophorin A protein (Sigma, cat # G5017) (human, UniProt P02724 20-150); assay: ELISA, hGPA
T19 construct: mature; also called Sigma hGPA; Sigma GPA
T19 sequence (looked up): T1 sequence (looked up)
Experimental: (§3) Hybridomas were generated from the spleen cells of these mice and these hybriomas were screened first by fluorescence activated cell sorting (FACS) against isolated human and monkey (Cynomolgus monkey and Rhesus monkey) red blood cells (RBC) and then by ELISA against purified human glycophorin A protein (GPA). Isolated RBC were prepared from whole blood from normal human, cynomolgus monkey, and beagle dog, were anticoagulant with sodium heparin (Bioreclamation). 2-3 mL of whole blood was loaded gently on the top of 3 mL Ficoll Plus (Sigma Aldrich) then centrifuged at 500 g for 20 min at room temperature (RT). The RBC pellets were washed 3 times with 10 mL of PBS, and centrifuge 400 g for 10 min at RT. RBC pellets were re-suspended in PBS at the same total volume as the original blood volume to achieve the same RBC cell density as in whole blood and stored at 4° C. Purified human glycophorin A protein was obtained from Sigma Aldrich and coated on ELISA plates at 2 ug/ml. Binding of antibodies to human GPA was detected using appropriate secondary antibodies using methods well known in the art.

[25] = target: T3, Rhesus monkey glycophorin A on Rhesus …; assay: FACS, RBC Rh03
Experimental: as §2

[26] = target: T20, asialo hGPA (desialylated human GPA) (human, UniProt P02724 20-150, desialylated); assay: ELISA, purified IgG
T20 construct: mature; also called asialo-GPA
T20 sequence (looked up): T1 sequence (looked up)
Experimental: (§4) The “Sigma GPA” is a crude preparation of human GPA extracted from human red blood cells and is therefore representative of the highly glycosylated form of the native protein.
(§5) EC 50 values were determined from a dilution curve of the antibody. Sigma GPA is partially purified GPA extracted from human red blood cells and purchased from Sigma Chemical Company (cat # G5017), asialo hGPA is human GPA that was desialylated and ECD is the recombinantly expressed ectodomain which is the extracellular portion of GPA.

[27] = target: T19, purified human glycophorin A protein …; assay: ELISA, purified IgG
Experimental: as §4, §5

[28] = target: T21, recombinant human GPA ectodomain (human, UniProt P02724 20-91); assay: ELISA, purified IgG
T21 construct: also called recombinant hGPA ECD; recGPA
T21 sequence: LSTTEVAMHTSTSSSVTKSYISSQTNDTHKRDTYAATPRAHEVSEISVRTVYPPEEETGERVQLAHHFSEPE
Experimental: as §4, §5

[29] = target: T2, Cynomolgus monkey glycophorin A on …; assay: FACS, RBC Cy02
Experimental: as §2

[30] = target: T21, recombinant human GPA ectodomain; assay: SPR, IgG
[31] = target: T1, human glycophorin A in the red blood …; assay: FACS, IgG titrated on human GPA expressing CHO-QMCF1 cells (17d post txn)
[32] = target: T1, human glycophorin A in the red blood …; assay: FACS, RBC Hu03
Experimental: as §2

[33] = target: T1, human glycophorin A in the red blood …; assay: FACS, hu RBC
[34] = target: T2, Cynomolgus monkey glycophorin A on …; assay: FACS, Cyno RBC
Experimental: as §3

[35] = target: T22, GP5 peptide (human, N-terminal biotin); assay: peptides bound to plates (data not shown)
T22 construct: residues 42 to 61 of the human glycophorin A extracellular domain
T22 peptide: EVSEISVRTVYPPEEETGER

[36] = target: T1, human glycophorin A in the red blood …; assay: FACS, RBC Hu02
Experimental: as §2

[37] = target: T4, dog red blood cells; assay: FACS, dog RBC
Experimental: as §3

[38] = target: T1, human glycophorin A in the red blood …; assay: FACS, RBC Hu01
Experimental: as §2

[39] = target: T19, purified human glycophorin A protein …; assay: ELISA, IgG
[40] = target: T3, Rhesus monkey glycophorin A on Rhesus …; assay: FACS, RBC Rh02
[41] = target: T3, Rhesus monkey glycophorin A on Rhesus …; assay: FACS, RBC Rh01
Experimental: as §2

binding result [1]: no binding
FACS signal [2]: 1 Flourescent units
FACS signal [3]: 1 Flourescent units
FACS signal [4]: 1 Flourescent units
FACS signal [5]: 1 Flourescent units
FACS signal [6]: 1 Flourescent units
FACS signal [7]: 1 Flourescent units
B1: 1H5 scFv-Fc (Fc fusion)
scFv: QVQLQQSGAELARPGASVKMSCKASGYTFTSYSIHWIKQRPGQSLEWIGYINPNSDYANYNQKFKDKATLTTDKSSTTAYMQLSSLTTDDSAVYYCQTGTRDYWGQGTTLTVSSGGGGSGGGGSGGGGSDIVMTQSPSSLSVSAGEKVTMSCKSSQSLLNSGNQKNYLAWYQQKPGQPPKLLIYGASTRESGVPDRFTGSGSGTDFTLTISSVQAEDLAVYYCQNDHSYPYTFGGGTKLEIKGGGGAGGGGCKPCICTVPEVSSVFIFPPKPKDVLTITLTPKVTCVVVDISKDDPEVQFSWFVDDVEVHTAQTQPREEQFNSTFRSVSELPIMHQDWLNGKEFKCRVNSAAFPAPIEKTISKTKGRPKAPQVYTIPPPKEQMAKDKVSLTCMITDFFPEDITVEWQWNGQPAENYKNTQPIMDTDGSYFVYSKLNVQKSNWEAGNTFTCSVLHEGLHNHHTEKSLSHSPGK
notes: as m18

percent reduction of binding [8]: > 95%
percent reduction of binding [9]: 50%
percent reduction of binding [10]: > 95%
percent reduction of binding [11]: 70%
fold improvement of affinity against the parental antibody [12]: ~200 fold
binding result [13]: no binding (tested: 0.5 ug/ml)
binding result [14]: no binding (tested: 0.5 ug/ml)
binding result [15]: no binding (tested: 0.5 ug/ml)
binding result [16]: no binding (tested: 0.5 ug/ml)
binding result [17]: no binding (tested: 0.5 ug/ml)
binding result [18]: no binding (tested: 0.5 ug/ml)
binding result [19]: no binding (tested: 0.5 ug/ml)
binding result [20]: no binding (tested: 0.5 ug/ml)
binding result [21]: no binding (tested: 0.5 ug/ml)
binding result [22]: no binding (tested: 0.5 ug/ml)
B2: TPP-5906 Fab (Fab, V domains shown)
VH: EVQLVQSGAEVKKPGASVKVSCKASGYTFTTYTIHWVRQAPGQGLEWMGYINPSSGYTRYNPKFKGRVTMTRDKSTSTAYMELRSLRSDDTAVYYCQTGTRDYWGQGTTVTVSS
VL: DIQLTQSPSFLSASVGDRVTITCRASSSVSYIYWFQQKPGKAPKLLIYATSTLQSGVPSRFSGSGSGTEYTLTISSLQPEDFATYYCHQRNSFPYTFGQGTKLEIKR
notes: also called parental humanized and germlined 6C12 Fab

fluorescence intensity [23]: 2570
EC50 [24]: 0.791 nM
fluorescence intensity [25]: 3180
EC50 [26]: 0.69 nM
EC50 [27]: 0.64 nM
EC50 [28]: 0.59 nM
fluorescence intensity [29]: 2570
Kd [30]: 2.98 nM
koff [30]: 0.00212 s⁻¹
kon [30]: 711000 M⁻¹ s⁻¹
t½ [30]: 5.4 min
EC50 (read off the curve) [31]: ~0.06 µg/mL
fluorescence intensity [32]: 2680
FACS signal [33]: 3100 relative flourescence units
FACS signal [34]: 292 relative flourescence units
binding result [35]: binds
fluorescence intensity [36]: 2540
FACS signal [37]: 1.18 relative flourescence units
fluorescence intensity [38]: 3520
EC50 [39]: 0.326 nM
fluorescence intensity [40]: 3410
fluorescence intensity [41]: 3780
B3: 6C12B8/H8 (antibody, V domains shown)
VH: RVQLQQSGAELARPGASVKMSCKASGYTFTTYTIHWVKQKTGQGLEWIGYINPSSDYTRYNPKFKDKATLTTDKSSSTAYMKLNSLASDDSAVYYCQTGTRDYWGQGTTLTVSS
VL: QIVLTQSPPIMSASPGEKVTMTCSAASSVSYIYWFQQKPGTSPKLWIYSTSTLPSGVPTRFSGSGSGTSYSLTISRMEAEDAATYYCHQRNSFPFTFGSGTKLEIR
notes: mouse IgG1/k from hybridoma; also called 6C12 parental; TPP-3422
